± gives the half width of the 95% confidence interval.
How the values were obtained:
[1] = folding stability dG unfold from chymotrypsin proteolysis; higher = more stable
Method in brief: (§1)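 How resistant each design was to proteolysis was captured as K50, inferred by Bayesian fitting of sequencing counts. Unfolding free energy was then derived relative to a sequence-predicted unfolded-state K50 and a shared folded-state K50, per protease or combined. Digestion used trypsin and chymotrypsin at 11 threefold-diluted concentrations plus a no-protease condition, on mini-proteins under 80 residues without cysteine in a PA-tagged cDNA display construct. Designs were kept only when AlphaFold2 dimer inter-PAE was above 15.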

[2] = folding stability dG unfold (combined trypsin and chymotrypsin); higher = more stable
Method in brief: as §1

[3] = folding stability dG unfold from trypsin proteolysis; higher = more stable
Method in brief: as §1

Sequence | folding stability dG unfold [1] [kcal/mol] | folding stability dG unfold [2] [kcal/mol] | folding stability dG unfold [3] [kcal/mol]
SAGGSAGGSAGPITVPPGAVLLSVEEEGERTRVTVRLPGSGVVETYTFEPGEPVVVELPGSAGGSAGGSAGG [r11_774_JUSTAS] | 2.941 ± 0.016 | 2.75 ± 0.043 | 2.27 ± 0.053
SAGGSAGGSAGPITYRLEIRYEIERIEVRVYPGPEGPLVGEFRIEVRLEVRVEALPPEETSAGGSAGGSAGG [r11_24_TrMRF] | 4.88 ± 0.12 | 4.53 ± 0.16 | 3.69 ± 0.17
SAGGSAGGSAGPIVLIKIKNKNGKEIEIEMSLEELKKKLPKELKNMKVEIVEVKEVKVEKSAGGSAGGSAGG [r11_353_TrROS_Hall] | 0.315 ± 0.14 | 0.56 ± 0.27 | 0.351 ± 0.088
SAGGSAGGSAGPIVYPYGKYLVVYNPETGALVVVELDPDGKVKKVVVFGKDGPLVELDDASAGGSAGGSAGG [r17_385_TrMRF] | 3.369 ± 0.022 | 3.14 ± 0.047 | 2.76 ± 0.067
SAGGSAGGSAGPKILSIEEYDPENGYITVIAELTGKPVRMKVKFIPGKKEIKIIEIEPLDSAGGSAGGSAGG [r11_1066_TrMRF] | 2.49 ± 0.036 | 2.36 ± 0.1 | 1.81 ± 0.07
SAGGSAGGSAGPKPPPVYRLRIVNPDGEVYEFEVPADMSPEEIAKRLGLPPGARVELEKVSAGGSAGGSAGG [r11_340_TrROS_Hall] | 3.35 ± 0.081 | 3.28 ± 0.28 | 2.59 ± 0.17
SAGGSAGGSAGPKVVLVPVKVVQKLLGVKIPENSRVLVLLEKDKVKAVLVFPVLPSPENPSAGGSAGGSAGG [r11_616_TrMRF] | 1.55 ± 0.07 | 1.54 ± 0.17 | 1.26 ± 0.12
SAGGSAGGSAGPLSTVTETTTTVPLPNGEVLTVTTYTYPDLGVTTVTTTYPDGTVTTTTIPVSAGGSAGGSA [r18_88_JUSTAS] | 2.544 ± 0.011 | 2.47 ± 0.041 | 2.3 ± 0.077
SAGGSAGGSAGPPNVKLTFTIMIMEMKMEPPPDGNPKMEMVMVPIEIEITAPPGDEITAISAGGSAGGSAGG [r11_174_TrROS] | 4 ± 0.44 | 2.93 ± 0.39 | 2.41 ± 0.2
SAGGSAGGSAGPPPIEELLEQAKKNPNRPITIRNPGGYYIRITVKPDPNGKPEVEIEPVPSAGGSAGGSAGG [r11_300_TrROS] | 0.336 ± 0.25 | 0.263 ± 0.16 | 0.259 ± 0.09
SAGGSAGGSAGPPVTLDEIRDHLPPENIEDVEVNPPEGWVVIEFKPPGGEKQEITIRADDSAGGSAGGSAGG [r17_374_TrROS] | 0.271 ± 0.021 | 0.277 ± 0.13 | 0.198 ± 0.062
SAGGSAGGSAGPTLTLTLPPGKLSPEFLEALAAQGYTLGEVTVTEVPEDDTVVVTVTTAPSAGGSAGGSAGG [r11_345_JUSTAS] | 0.623 ± 0.12 | 1.1 ± 0.069 | 1.4 ± 0.069
SAGGSAGGSAGPVVISIPETNTLVVLAPLPDDRVLADVFQFDPTTPEPTVFTVPAENISFSAGGSAGGSAGG [r11_285_TrMRF] | 0.335 ± 0.13 | 0.565 ± 0.099 | 0.76 ± 0.024
SAGGSAGGSAGPYVVTIELPSGERIEVAVPAERLEEHVEELKPLVEPARITVRPVAPDALSAGGSAGGSAGG [r11_103_TrMRF] | 0.477 ± 0.018 | 0.376 ± 0.053 | 0.143 ± 0.02
SAGGSAGGSAGRMLVIEIEMPGRKRTFMIPTPDGPPIKAEELADKLGFDNVTVKIHPIDDSAGGSAGGSAGG [r11_219_TrROS] | 0.261 ± 0.31 | 0.0664 ± 0.16 | -0.12 ± 0.55
SAGGSAGGSAGRRRVFFTPDGTLIVVDELPDFVRVTRYRITPGFPRIEPVDTRVLPPGALSAGGSAGGSAGG [r11_844_TrMRF] | 2.94 ± 0.086 | 2.25 ± 0.16 | 1.11 ± 0.18
SAGGSAGGSAGSITFTVPASEFTEEEILERLVEELGIPREKVDLVEIKETPDGKLKVTIKIPSAGGSAGGSA [r18_118_JUSTAS] | 2.488 ± 0.021 | 2.63 ± 0.06 | 2.86 ± 0.085
SAGGSAGGSAGSITLPDGLTLTWNPATNTLTITLTAPPPPTTTTTTKPAATTTTTTTTTTSAGGSAGGSAGG [r11_331_TrROS_Hall] | 1.77 ± 0.092 | 1.87 ± 0.14 | 2.18 ± 0.086
SAGGSAGGSAGSIVLTKTEILPGPENRPIIKTTIYKPPGPITITYPGGDPSKLVIETNSGSAGGSAGGSAGG [r17_64_JUSTAS] | -0.331 ± 0.37 | 0.0213 ± 0.28 | 0.247 ± 0.032
SAGGSAGGSAGSIVTIPIAGLSPEEAEALIKEAIAAGEDKPIILVDEDGTPTVVPASELKSAGGSAGGSAGG [r11_541_JUSTAS] | -0.408 ± 0.035 | -0.242 ± 0.079 | -0.189 ± 0.052
SAGGSAGGSAGSKTIEVVIPVKPNELTPEQAENLIKPFFPDAKIEVTPEGNYLVVKVEVSSAGGSAGGSAGG [r11_7_TrMRF] | 0.334 ± 0.067 | 0.366 ± 0.18 | 0.475 ± 0.11
